According to patent publication US20230181701A1:

Molecular target: CD20 on Daudi cells (UniProt P11836)
Assay: cell-based or functional assay

UniProt P11836, sequence (P11836 whole entry): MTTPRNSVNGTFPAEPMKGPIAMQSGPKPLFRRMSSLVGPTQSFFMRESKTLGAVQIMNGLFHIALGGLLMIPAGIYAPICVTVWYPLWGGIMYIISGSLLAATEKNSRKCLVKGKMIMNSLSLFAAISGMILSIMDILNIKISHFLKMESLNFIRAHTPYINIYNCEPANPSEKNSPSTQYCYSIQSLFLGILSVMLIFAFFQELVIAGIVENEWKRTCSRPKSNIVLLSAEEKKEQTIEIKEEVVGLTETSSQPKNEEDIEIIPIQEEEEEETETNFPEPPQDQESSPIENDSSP

CDC of Daudi cells with baby rabbit serum (CCK8) (% of cells dead): 70
Substance: Anti-CD20 IgG (Rituximab, N7022, 10 mg/mL, Mabthera) (antibody)
